Experimental data: US7033773B1, “Screening assays for G protein coupled receptor agonists and antagonists” (The General Hospital Corporation, priority 1997, dated 2006)

Assays:
human PTH/PTHrP receptor [1] = biological target: T1, human PTH/PTHrP receptor (Homo sapiens, UniProt Q03431); test: Cytosolic free calcium (fura-2) in LLC-PK1 cells expressing human PTHR; conditions: 100 nM peptide; HKRK B7 cells
T1 sequence (Q03431 27-593): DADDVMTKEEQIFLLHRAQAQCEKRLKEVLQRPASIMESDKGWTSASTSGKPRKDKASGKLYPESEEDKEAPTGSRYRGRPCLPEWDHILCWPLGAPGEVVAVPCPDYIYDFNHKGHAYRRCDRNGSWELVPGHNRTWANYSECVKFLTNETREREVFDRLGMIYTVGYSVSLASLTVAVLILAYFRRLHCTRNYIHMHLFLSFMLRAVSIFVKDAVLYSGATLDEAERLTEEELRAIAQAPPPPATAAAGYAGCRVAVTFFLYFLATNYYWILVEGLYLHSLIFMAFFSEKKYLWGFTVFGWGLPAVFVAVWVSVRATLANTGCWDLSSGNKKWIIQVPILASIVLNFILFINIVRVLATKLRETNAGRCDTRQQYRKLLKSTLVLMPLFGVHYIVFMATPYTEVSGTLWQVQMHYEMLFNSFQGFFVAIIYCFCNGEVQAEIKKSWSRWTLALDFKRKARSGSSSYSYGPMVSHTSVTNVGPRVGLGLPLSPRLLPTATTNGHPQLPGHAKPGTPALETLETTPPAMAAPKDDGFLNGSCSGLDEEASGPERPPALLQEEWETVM
Procedure: Cytosolic free calcium was measured in fura 2AM-loaded confluent monolayers of cells.
Cytosolic free calcium was measured by dual fluorescence in cells loaded with the Ca^2+-sensitive intracellular probe fura-2. Cells were seeded onto glass coverslips at a density of 40,000-600,000/cm^2 and incubated for 2 days as described above. Coverslips were washed twice with PBS before loading in phosphate-free Buffer B containing 4 uM of fura-2/AM (Molecular Probes, Eugene, Oreg.) for 30 min at room temperature (22° C.). After washing twice with fura-free Buffer B, the coverslips were mounted in a cuvette containing 2 ml of phosphate-free Buffer B at 37° C. and the emission at 510 nm in response to alternating excitation at 340 and 380 nm was monitored using a ratiometric PTI Deltascan fluorescence spectrometer with excitation and emission bandwidths of 2 nm. After achieving a stable baseline, agonists were introduced by exchange into 2 ml of fresh buffer to which 10-20 ul of concentrated agonist stock (or vehicle alone) had been added. Peptide stocks were prepared in 0.1% trifluoroacetic acid, ionomycin and phorbol esters were dissolved in dimethyl sulfoxide and all other additives were prepared in water. Maximum and minimum fluorescence signals were obtained by exposure to modified buffers containing 1 uM ionomycin plus 20 mM calcium or 2 mM EGTA in the nominal absence of calcium, respectively, and autofluorescence was estimated from signals obtained in the presence of ionomycin plus 2.5 mM MnCl2.

human PTH/PTHrP receptor [2] = biological target: T1, human PTH/PTHrP receptor; test: Cellular cAMP accumulation in LLC-PK1 cells expressing human PTHR; assay type: cell-based; parameters: transfected with a full-length human PTH/PTHrP receptor cDNA; expressed in transfected cells; conditions: HKRK B28 cells; similar in HKRK B7
Procedure: Cells were seeded into 24-well plates at a density of 2.5×10^5 cells/well and cultured for a further 2 days before study. The cells were rinsed once with 0.5 ml of ice-cold Buffer B [10 mM HEPES (pH 7.4), 130 mM NaCl, 5 mM KCl, 1.2 mM CaCl2, 1 mM MgCl2, 1.2 mM Na2HPO^4 5 mM glucose, and 0.1% heat-inactivated BSA] supplemented with 1 mM isobtylmethylxanthine (IBMX), and placed on ice. Treatments were added to each well in 0.25 ml of IBMX-supplemented Buffer B, after which the plates were incubated at 37° C. for 15 min. The buffer then was rapidly aspirated, the plates were rapidly transferred onto liquid nitrogen, and the frozen monolayers were subsequently thawed directly into 0.5 ml of 50 mM HCl. The extracted cAMP then was measured using a commercial RIA kit (Dupont-New England Nuclear, Boston, Mass.). Results were expressed as fold-basal, where basal levels ranged between 38 and 128 pmol/mg protein/15 min. The basal level of cAMP accumulation in native LLC-PK1 cells was not consistently altered in subclones that expressed wild type PTH/PTHrp receptors.
Maximal PTH-dependent cAMP accumulation was assessed in the human PTHR-transfected LLC-PK1 subclones following incubation for 15 min with a high concentration (1000 nM) of hPTH(1-34) (Table 1). As reported previously for LLC-PK1 cells that stably expressed rat PTHRs (Guo, J., et al., Endocrinology 136:3884-3891 (1995)), the maximal adenylyl cyclase response was relatively independent of the surface density of human PTHRs above a relatively low threshold (relative to that required for PLC activation—see below). In the case of the human PTHR, however, this threshold for saturation of maximal AC activation appeared to lie between 120,000 and 280,000 (Table 1), which is at least 6 to 10-fold higher than that previously observed for the rat PTHR (Guo, J., et al., Endocrinology 136:3884-3891 (1995)).

rat PTHR = biological target: T2, rat PTHR (Rattus norvegicus, UniProt P25961); test: Cellular phosphate uptake in LLC-PK1 cells expressing rat PTHR; assay type: cell-based
T2 construct: expressed in transfected cells; host or cells: LLC-PK1 porcine renal epithelial cells (EW5; also EW29, AR-C38, AR-B44)
T2 sequence (P25961 27-591): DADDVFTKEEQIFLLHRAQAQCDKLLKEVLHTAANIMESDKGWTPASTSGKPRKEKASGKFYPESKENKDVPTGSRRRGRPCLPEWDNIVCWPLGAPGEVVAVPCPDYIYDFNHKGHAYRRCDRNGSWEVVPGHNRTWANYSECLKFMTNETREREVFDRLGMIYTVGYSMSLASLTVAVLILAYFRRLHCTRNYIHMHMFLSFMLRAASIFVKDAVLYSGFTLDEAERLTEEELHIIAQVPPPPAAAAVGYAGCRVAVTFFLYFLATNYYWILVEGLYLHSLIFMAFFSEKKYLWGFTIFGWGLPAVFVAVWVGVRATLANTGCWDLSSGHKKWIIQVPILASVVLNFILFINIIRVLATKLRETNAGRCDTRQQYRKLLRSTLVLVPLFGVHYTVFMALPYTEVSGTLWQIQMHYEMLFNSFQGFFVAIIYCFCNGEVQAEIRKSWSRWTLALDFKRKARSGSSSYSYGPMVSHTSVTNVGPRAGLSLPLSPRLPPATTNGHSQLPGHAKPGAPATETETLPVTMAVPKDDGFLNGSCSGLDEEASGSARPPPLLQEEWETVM
Procedure: Cells were seeded into 24-well plates at a density of 2.5×10^5 cells/well and cultured for a further 2 days before study. Twenty four hours before assay, cells were refed with 0.5 ml of DMEM containing 0.1% BSA. The next day, cells were refed with serum-free medium (DMEM+0.1% BSA) containing drugs or peptides, and the incubations were continued at 37° C. under 5% CO2 in air for another 6 hr. Cells then were washed with prewarmed Buffer B without BSA and Na2HPO4 and then were incubated at 37° C. for 5 min in 0.25 ml of the same buffer containing [^32P]orthophosphate (4 uCi/ml) and 0.1 mM Na2HPO4. Phosphate uptake was arrested by adding 1 ml of ice-cold sodium-free “stop buffer” [10 mM HEPES (pH 7.4), 140 mM choline chloride, and 5 mM sodium arsenate], followed by two further washes with same buffer. The drained cell layer then was solubilized in 0.5 ml of Lysis Buffer, and cell-associated radioactivity was determined by Cerenkov counting, as previously described (Guo, J., et al., Endocrinology 136:3884-3891 (1995)).
Responses to hPTH(1-34) or hPTH(1-31) (1000 nM) were measured in EW5 cells, which express 320,000 rat PTHRs per cell. Each value is the mean±SEM of a representative experiment performed in triplicate. Similar results were obtained in at least 3 individual experiments. […]

stimulation of phosphate uptake (in words) (rat PTHR; EW5 cells): identical
Phosphate uptake (rat PTHR; EW5 cells, 320,000 rat PTHRs per cell, peptide 1000 nM, mean±SEM): 134 ± 3 % of basal
Substance: hPTH(1-31)
cytosolic free calcium transients (human PTH/PTHrP receptor [1]): fully activated cytosolic free calcium transients
activation of AC (in words) (human PTH/PTHrP receptor [2]): indistinguishable from that to hPTH(1-34)
